Experimental data published in US20100203046A1 (Biogen, published 2010).
Where two headings read alike, the source gives them in different places.

Columns and labels:
[1] = biological target: Human FcγRIIIa on natural killer (NK) cells of a donor (human, UniProt P08637 17-254); assay: cell-based or functional assay
[2] = biological target: T1, human FcγRIII (CD16), CD16a (F158), on CD16-transfected Jurkat cells (human, UniProt P08637 17-254); assay: CD16 bridging assay, transient
T1 construct: whole, on cells
T1 sequence (P08637 17-254): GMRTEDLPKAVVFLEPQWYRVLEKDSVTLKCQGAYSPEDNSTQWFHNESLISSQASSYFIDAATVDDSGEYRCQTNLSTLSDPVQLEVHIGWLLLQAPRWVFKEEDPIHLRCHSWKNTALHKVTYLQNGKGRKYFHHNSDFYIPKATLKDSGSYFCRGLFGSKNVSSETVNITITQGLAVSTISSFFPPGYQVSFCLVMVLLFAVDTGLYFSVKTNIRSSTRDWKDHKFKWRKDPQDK

human C1q (Sigma C0660) [3] = biological target: T2, human C1q (Sigma C0660) (human, UniProt P02745 23-245; P02746 28-253; P02747 29-245); assay: C1q ELISA on CD2, purified
T2 construct: Bought protein; also called complement protein C1q
Procedure: (§1) The C1q binding assay was performed by coating 96 well Maxisorb ELISA plates (Nalge-Nunc Rochester, N.Y., USA) with 50 μl recombinant soluble human CD2 at 10 μg/ml overnight at 4° C. in PBS. The wells were aspirated and washed three times with wash buffer (PBS, 0.05% Tween 20) and blocked for >1 h with 200 μ/well of block/diluent buffer (0.1 M Na₂HPO₄, pH 7, 0.1 M NaCl, 0.05% Tween 20, 0.1% gelatin). The antibody to be tested was diluted in block/diluent buffer starting at 15 μg/ml with 3-fold dilutions. 50 μl were added per well, and the plates incubated for 2 h at room temperature. After aspirating and washing as above, 50 μl/well of 2 μg/ml of Sigma human C1q (C0660) diluted in block/diluent buffer was added and incubated for 1.5 h at room temperature. After aspirating and washing as above, 50 μl/well of chicken anti human C1q (Cedarlane laboratories CL2101AP), diluted 2,000-fold in block/diluent buffer, was added. After incubation for 1.5 h at room temperature, the wells were aspirated and washed as above. 50 μl/well of donkey F(ab′)₂ anti chicken IgY HRP conjugate (Jackson ImmunoResearch 703-036-155) diluted to 1:5,000 in block/diluent was then added, and the wells incubated for 1 h at room temperature. After aspirating and washing as above, 100 μl TMB substrate (420 μM TMB, 0.004% H₂O₂ in 0.1 M sodium acetate/citric acid buffer, pH 4.9) was added and incubated for 2 min before the reaction was stopped with 100 μl 2 N sulfuric acid. The absorbance was read at 450 nm with a Softmax P instrument, and Softmax software was used to determine the relative binding affinity (C value) with a 4-parameter fit.

[4] = biological target: T3, GST-tagged FcγRIII, CD16a (V158) (UniProt P08637 17-208, limits assumed); assay: AlphaScreen competition vs huIgG1 beads, purified
T3 construct: the canonical entry carries F there; Captured by biotinylated anti-GST mAb on streptavidin donor beads; also called GST-FcγRIII; not shown: GST tag
T3 sequence (P08637 17-208 F176V limits assumed): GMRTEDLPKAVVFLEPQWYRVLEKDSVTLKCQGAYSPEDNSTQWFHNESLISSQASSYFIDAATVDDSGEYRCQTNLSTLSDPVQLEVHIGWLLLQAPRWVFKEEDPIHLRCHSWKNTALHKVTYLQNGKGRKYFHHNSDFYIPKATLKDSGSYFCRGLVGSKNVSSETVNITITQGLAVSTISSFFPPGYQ
Procedure: The relative binding affinities to FcγRIII (CD16), of the variant antibodies, was determined using an AlphaScreen assay (Amplified Luminescent Proximity Homogeneous Assay, PerkinElmer, MA, USA). Laser excitation of a donor bead excites oxygen, which if in close proximity to an acceptor bead generates a cascade of chemiluminescent events, ultimately leading to fluorescence emission at 520-620 nm. […] The reaction was carried out for one hour in a 25 μl volume and plates were read in the Fusion Alpha reader (PerkinElmer).

[5] = biological target: T1, human FcγRIII (CD16), CD16a (F158), on …; assay: CD16 bridging assay, purified
[6] = biological target: T4, human FcγRI (CD64) on IFNγ-activated U937 cells (human, UniProt P12314 16-374); assay: CD64 bridging assay, purified
T4 construct: whole, on cells; also called FcγR1
T4 sequence (P12314 16-374): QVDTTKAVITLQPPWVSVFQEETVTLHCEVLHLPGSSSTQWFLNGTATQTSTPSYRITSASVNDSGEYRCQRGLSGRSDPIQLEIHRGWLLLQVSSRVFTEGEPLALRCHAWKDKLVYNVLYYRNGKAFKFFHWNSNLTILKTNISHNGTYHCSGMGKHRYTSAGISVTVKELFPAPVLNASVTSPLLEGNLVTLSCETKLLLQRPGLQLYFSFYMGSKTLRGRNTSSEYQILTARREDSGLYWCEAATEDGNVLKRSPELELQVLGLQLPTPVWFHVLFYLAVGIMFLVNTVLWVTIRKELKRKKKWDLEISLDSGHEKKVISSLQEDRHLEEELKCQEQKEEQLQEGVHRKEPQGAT

human C1q (Sigma C0660) [7] = biological target: T2, human C1q (Sigma C0660); assay: C1q ELISA on CD2, transient
Procedure: as §1

human C1q (Sigma C0660) [8] = biological target: T2, human C1q (Sigma C0660); assay: summary of Table 6 assays
[9] = biological target: T1, human FcγRIII (CD16), CD16a (F158), on …; assay: CD16 bridging assay, transient; remark: listed apart in the source
[10] = biological target: T1, human FcγRIII (CD16), CD16a (F158), on …; assay: CD16 bridging assay, transient; remark: listed apart in the source
[11] = biological target: T1, human FcγRIII (CD16), CD16a (F158), on …; assay: CD16 bridging assay, purified; remark: listed apart in the source
[12] = biological target: T1, human FcγRIII (CD16), CD16a (F158), on …; assay: CD16 bridging assay, transient; remark: listed apart in the source
[13] = biological target: T1, human FcγRIII (CD16), CD16a (F158), on …; assay: summary of Table 5 assays
[14] = biological target: T1, human FcγRIII (CD16), CD16a (F158), on …; assay: CD16 bridging assay, transient; remark: listed apart in the source
[15] = biological target: T1, human FcγRIII (CD16), CD16a (F158), on …; assay: summary of Table 3 assays

B1: chCB6-huIgG1 I332E (antibody, name in EU numbering)
heavy: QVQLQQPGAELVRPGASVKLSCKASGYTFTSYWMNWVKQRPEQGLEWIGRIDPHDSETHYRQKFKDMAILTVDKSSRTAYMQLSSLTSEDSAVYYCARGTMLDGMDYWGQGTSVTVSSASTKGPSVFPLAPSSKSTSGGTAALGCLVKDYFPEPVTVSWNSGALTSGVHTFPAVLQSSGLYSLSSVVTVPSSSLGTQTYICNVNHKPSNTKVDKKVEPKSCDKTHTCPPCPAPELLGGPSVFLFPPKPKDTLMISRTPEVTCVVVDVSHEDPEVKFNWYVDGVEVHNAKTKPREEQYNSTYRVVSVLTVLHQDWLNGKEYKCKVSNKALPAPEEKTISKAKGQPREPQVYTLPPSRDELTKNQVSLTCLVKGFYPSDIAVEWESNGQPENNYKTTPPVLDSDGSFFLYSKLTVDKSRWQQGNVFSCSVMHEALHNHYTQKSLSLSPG
light: QIVLTQSPAIMSASPGEKVTMTCRASSSVSHMHWYQQKSGTSPKRWIYDTSKLASGVPARFSGSGSGTSYSLTISSVEAEDAATYYCQQWSSNPLTFGAGTKLELKRTVAAPSVFIFPPSDEQLKSGTASVVCLLNNFYPREAKVQWKVDNALQSGNSQESVTEQDSKDSTYSLSSTLTLSKADYEKHKVYACEVTHQGLSSPVTKSFNRGEC
notes: copies: 2 + 2
ADCC NK cell, purified (fold increase vs WT) [1]: 24 fold
fold increase in binding vs WT [2]: 20 fold
binding result (human C1q (Sigma C0660) [3]): binds
fold increase in binding vs WT [4]: 8 fold
fold increase in binding vs WT [5]: 7 fold
binding result [6]: binds

B2: chCB6-huIgG1 S239D (antibody, name in EU numbering)
heavy: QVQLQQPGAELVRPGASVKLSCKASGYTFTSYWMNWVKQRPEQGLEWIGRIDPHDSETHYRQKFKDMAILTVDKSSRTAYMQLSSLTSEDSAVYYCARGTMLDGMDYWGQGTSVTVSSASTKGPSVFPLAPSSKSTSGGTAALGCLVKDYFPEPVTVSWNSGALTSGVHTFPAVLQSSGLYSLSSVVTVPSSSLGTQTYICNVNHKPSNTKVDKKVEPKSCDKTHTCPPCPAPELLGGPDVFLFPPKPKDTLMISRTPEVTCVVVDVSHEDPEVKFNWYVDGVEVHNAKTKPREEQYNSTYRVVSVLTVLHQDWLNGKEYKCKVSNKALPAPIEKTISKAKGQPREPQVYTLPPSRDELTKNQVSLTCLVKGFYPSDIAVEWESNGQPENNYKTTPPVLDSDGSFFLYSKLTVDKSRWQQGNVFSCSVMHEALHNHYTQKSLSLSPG
light: B1 light
notes: copies: 2 + 2
fold increase in binding vs WT [2]: 6 fold
fold decrease in binding vs WT (human C1q (Sigma C0660) [3]): 2 fold
fold increase in binding vs WT [4]: 9 fold
fold increase in binding vs WT [5]: 6 fold
binding result [6]: binds

B3: chCB6-huIgG1 I332D (antibody, name in EU numbering)
heavy: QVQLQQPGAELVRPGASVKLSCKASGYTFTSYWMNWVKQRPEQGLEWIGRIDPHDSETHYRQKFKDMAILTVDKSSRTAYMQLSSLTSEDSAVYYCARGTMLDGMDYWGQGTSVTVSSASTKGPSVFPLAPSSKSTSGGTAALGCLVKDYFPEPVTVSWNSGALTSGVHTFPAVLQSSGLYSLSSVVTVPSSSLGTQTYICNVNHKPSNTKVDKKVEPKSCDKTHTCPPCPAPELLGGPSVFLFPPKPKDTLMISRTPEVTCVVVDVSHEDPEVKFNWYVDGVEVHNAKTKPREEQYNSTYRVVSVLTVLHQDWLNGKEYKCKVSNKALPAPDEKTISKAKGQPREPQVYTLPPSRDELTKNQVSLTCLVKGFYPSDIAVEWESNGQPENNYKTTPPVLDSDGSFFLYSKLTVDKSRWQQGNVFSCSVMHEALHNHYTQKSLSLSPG
light: B1 light
notes: copies: 2 + 2
fold increase in binding vs WT [2]: 15 fold
binding result (human C1q (Sigma C0660) [3]): binds
fold increase in binding vs WT [4]: 4 fold
fold increase in binding vs WT [5]: 9 fold
binding result [6]: binds

B4: chCB6-huIgG1 A378F (antibody, name in EU numbering)
heavy: not shown
light: B1 light
notes: copies: 2 + 2
fold increase in binding vs WT (human C1q (Sigma C0660) [7]): 6 fold
fold increase in binding vs WT (human C1q (Sigma C0660) [8]): > 5 fold
binding result [9]: binds

B5: chCB6-huIgG1 S239P (antibody, name in EU numbering)
heavy: not shown
light: B1 light
notes: copies: 2 + 2
binding result [10]: no binding

B6: chCB6-huIgG1 S239E/I332D (antibody, name in EU numbering)
heavy: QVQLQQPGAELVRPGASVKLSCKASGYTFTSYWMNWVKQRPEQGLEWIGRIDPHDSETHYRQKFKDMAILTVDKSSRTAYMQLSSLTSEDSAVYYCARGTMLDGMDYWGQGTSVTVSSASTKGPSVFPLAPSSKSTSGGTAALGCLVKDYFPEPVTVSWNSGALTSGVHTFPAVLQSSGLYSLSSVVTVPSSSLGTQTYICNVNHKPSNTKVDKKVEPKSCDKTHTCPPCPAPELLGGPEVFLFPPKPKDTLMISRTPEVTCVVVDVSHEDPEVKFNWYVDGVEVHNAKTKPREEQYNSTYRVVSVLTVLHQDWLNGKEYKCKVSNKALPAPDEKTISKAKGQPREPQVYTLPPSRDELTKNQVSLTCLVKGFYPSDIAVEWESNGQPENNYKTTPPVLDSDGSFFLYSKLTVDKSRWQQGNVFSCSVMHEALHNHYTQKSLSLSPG
light: B1 light
notes: copies: 2 + 2
binding result (human C1q (Sigma C0660) [3]): binds
fold increase in binding vs WT [4]: 7 fold
fold increase in binding vs WT [11]: 8 fold
fold increase in binding vs WT [12]: 3 fold

B7: chCB6-huIgG1 S239D/H435S (antibody, name in EU numbering)
heavy: not shown
light: B1 light
notes: copies: 2 + 2
fold increase in binding vs WT [11]: 6 fold
fold increase in binding vs WT [12]: 3 fold

B8: chCB6-huIgG1 L328T (antibody, name in EU numbering)
heavy: not shown
light: B1 light
notes: copies: 2 + 2
fold decrease in binding vs WT [10]: 3 fold

B9: chCB6-huIgG1 L328Q (antibody, name in EU numbering)
heavy: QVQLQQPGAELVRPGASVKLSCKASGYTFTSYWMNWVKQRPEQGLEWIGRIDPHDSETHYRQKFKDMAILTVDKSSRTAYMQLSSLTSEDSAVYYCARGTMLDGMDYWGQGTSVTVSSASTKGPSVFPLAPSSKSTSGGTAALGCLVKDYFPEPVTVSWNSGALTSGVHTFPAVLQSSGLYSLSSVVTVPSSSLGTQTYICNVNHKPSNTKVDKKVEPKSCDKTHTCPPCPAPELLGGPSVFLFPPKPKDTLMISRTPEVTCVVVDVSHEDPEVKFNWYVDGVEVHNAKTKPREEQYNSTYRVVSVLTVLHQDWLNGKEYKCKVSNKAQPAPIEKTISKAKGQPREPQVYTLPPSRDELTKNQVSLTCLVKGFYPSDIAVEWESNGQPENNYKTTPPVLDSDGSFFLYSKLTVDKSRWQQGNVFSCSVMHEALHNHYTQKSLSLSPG
light: B1 light
notes: copies: 2 + 2
fold decrease in binding vs WT [2]: 3 fold
binding result (human C1q (Sigma C0660) [3]): no binding
fold decrease in binding vs WT [5]: 2 fold
binding result [6]: binds

B10: chCB6-huIgG1 A330H (antibody, name in EU numbering)
heavy: not shown
light: B1 light
notes: copies: 2 + 2
binding result [10]: binds

B11: chCB6-huIgG1 A378Y (antibody, name in EU numbering)
heavy: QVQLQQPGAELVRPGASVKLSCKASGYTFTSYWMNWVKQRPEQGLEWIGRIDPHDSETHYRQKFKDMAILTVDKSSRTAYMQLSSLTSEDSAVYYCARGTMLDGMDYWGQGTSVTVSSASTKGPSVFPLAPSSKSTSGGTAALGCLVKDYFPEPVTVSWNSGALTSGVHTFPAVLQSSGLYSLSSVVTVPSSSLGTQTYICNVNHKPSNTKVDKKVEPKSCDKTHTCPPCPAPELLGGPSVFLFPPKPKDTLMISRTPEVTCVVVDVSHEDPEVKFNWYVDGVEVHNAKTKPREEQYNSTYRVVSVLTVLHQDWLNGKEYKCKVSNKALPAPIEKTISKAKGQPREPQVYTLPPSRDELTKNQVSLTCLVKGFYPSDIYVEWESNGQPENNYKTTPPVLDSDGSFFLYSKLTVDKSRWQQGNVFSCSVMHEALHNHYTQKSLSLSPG
light: B1 light
notes: copies: 2 + 2
fold increase in binding vs WT (human C1q (Sigma C0660) [7]): 6 fold
fold increase in binding vs WT (human C1q (Sigma C0660) [8]): > 5 fold
binding result [9]: binds

B12: chCB6-huIgG1 S239E (antibody, name in EU numbering)
heavy: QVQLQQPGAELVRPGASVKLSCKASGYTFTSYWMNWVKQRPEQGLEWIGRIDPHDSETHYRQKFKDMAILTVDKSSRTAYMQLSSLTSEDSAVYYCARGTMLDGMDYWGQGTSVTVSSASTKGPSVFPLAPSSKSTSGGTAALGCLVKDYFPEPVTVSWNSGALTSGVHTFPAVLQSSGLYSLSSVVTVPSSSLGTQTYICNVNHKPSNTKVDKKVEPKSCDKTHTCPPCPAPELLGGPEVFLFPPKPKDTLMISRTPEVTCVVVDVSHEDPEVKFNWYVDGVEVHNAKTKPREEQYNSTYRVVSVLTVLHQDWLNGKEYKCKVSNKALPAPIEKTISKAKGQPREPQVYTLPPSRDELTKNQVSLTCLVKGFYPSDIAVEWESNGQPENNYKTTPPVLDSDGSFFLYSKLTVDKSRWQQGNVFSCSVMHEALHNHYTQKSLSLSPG
light: B1 light
notes: copies: 2 + 2
fold increase in binding vs WT [2]: 4 fold
fold decrease in binding vs WT (human C1q (Sigma C0660) [3]): 2 fold
fold increase in binding vs WT [4]: 8 fold
fold increase in binding vs WT [5]: 3 fold
binding result [6]: binds

B13: chCB6-huIgG1 Y296H (antibody, name in EU numbering)
heavy: not shown
light: B1 light
notes: copies: 2 + 2
fold decrease in binding vs WT [13]: > 10 fold
fold decrease in binding vs WT (human C1q (Sigma C0660) [7]): 3 fold
fold decrease in binding vs WT [14]: 18 fold

B14: chCB6-huIgG1 L328E (antibody, name in EU numbering)
heavy: not shown
light: B1 light
notes: copies: 2 + 2
fold decrease in binding vs WT [2]: 30 fold
binding result (human C1q (Sigma C0660) [3]): no binding
fold decrease in binding vs WT [5]: 9 fold
fold decrease in binding vs WT [15]: > 10 fold
fold decrease in binding vs WT [6]: 14 fold

B15: chCB6-huIgG1 S239H (antibody, name in EU numbering)
heavy: not shown
light: B1 light
notes: copies: 2 + 2
binding result [10]: no binding

B16: chCB6-huIgG1 H268D (antibody, name in EU numbering)
heavy: not shown
light: B1 light
notes: copies: 2 + 2
fold increase in binding vs WT [10]: 3 fold

B17: chCB6-huIgG1 F241Q (antibody, name in EU numbering)
heavy: not shown
light: B1 light
notes: copies: 2 + 2
fold decrease in binding vs WT [2]: 30 fold
fold decrease in binding vs WT [15]: > 10 fold

B18: chCB6-huIgG1 G236A (antibody, name in EU numbering)
heavy: not shown
light: B1 light
notes: copies: 2 + 2
fold decrease in binding vs WT [10]: 2 fold

B19: chCB6-huIgG1 H268P (antibody, name in EU numbering)
heavy: not shown
light: B1 light
notes: copies: 2 + 2
fold decrease in binding vs WT [10]: 3 fold

B20: chCB6-huIgG1 L234Q (antibody, name in EU numbering)
heavy: not shown
light: B1 light
notes: copies: 2 + 2
fold decrease in binding vs WT [10]: 5 fold

B21: chCB6-huIgG1 S298N (antibody, name in EU numbering)
heavy: not shown
light: B1 light
notes: copies: 2 + 2
fold decrease in binding vs WT [2]: 13 fold
fold decrease in binding vs WT [15]: > 10 fold

B22: chCB6-huIgG1 L328D (antibody, name in EU numbering)
heavy: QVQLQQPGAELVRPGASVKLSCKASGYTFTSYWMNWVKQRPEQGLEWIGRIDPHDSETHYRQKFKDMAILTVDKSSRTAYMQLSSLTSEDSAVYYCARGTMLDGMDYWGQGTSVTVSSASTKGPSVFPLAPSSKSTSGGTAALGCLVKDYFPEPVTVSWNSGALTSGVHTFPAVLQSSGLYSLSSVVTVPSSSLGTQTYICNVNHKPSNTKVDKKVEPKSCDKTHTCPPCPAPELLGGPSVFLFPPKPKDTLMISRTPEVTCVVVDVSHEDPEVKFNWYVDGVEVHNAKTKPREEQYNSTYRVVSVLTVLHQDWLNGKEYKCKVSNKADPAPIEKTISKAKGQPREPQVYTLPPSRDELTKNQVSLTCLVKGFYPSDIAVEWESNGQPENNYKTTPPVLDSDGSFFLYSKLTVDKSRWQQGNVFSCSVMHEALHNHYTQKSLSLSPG
light: B1 light
notes: copies: 2 + 2
binding result [2]: no binding
binding result (human C1q (Sigma C0660) [3]): no binding
fold decrease in binding vs WT [15]: > 10 fold
binding result [6]: binds

B23: chCB6-huIgG1 A378W (antibody, name in EU numbering)
heavy: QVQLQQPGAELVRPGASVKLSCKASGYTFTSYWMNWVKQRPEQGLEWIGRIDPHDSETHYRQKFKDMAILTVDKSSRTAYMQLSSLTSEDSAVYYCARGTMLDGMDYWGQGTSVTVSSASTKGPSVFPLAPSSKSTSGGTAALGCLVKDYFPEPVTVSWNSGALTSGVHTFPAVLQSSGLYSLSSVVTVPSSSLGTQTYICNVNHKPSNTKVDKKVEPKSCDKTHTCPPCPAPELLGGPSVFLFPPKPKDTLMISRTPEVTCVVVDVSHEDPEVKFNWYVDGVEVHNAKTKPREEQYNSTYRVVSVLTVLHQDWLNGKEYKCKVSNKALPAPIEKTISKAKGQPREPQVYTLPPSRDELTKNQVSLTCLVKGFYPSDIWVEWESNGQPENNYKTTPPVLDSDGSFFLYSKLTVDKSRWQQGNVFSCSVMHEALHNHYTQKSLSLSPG
light: B1 light
notes: copies: 2 + 2
fold increase in binding vs WT (human C1q (Sigma C0660) [7]): 7 fold
fold increase in binding vs WT (human C1q (Sigma C0660) [8]): > 5 fold
binding result [9]: binds

B24: chCB6-huIgG1 E294S (antibody, name in EU numbering)
heavy: not shown
light: B1 light
notes: copies: 2 + 2
fold decrease in binding vs WT [13]: > 10 fold
fold decrease in binding vs WT [14]: 12 fold

B25: chCB6-huIgG1 R301Q (antibody, name in EU numbering)
heavy: not shown
light: B1 light
notes: copies: 2 + 2
fold decrease in binding vs WT [13]: > 10 fold
binding result (human C1q (Sigma C0660) [7]): binds
fold decrease in binding vs WT [14]: 13 fold

B26: chCB6-huIgG1 S239E/I332E (antibody, name in EU numbering)
heavy: not shown
light: B1 light
notes: copies: 2 + 2
binding result (human C1q (Sigma C0660) [3]): binds
fold increase in binding vs WT [4]: 10 fold
fold increase in binding vs WT [11]: 6 fold
fold increase in binding vs WT [12]: 3 fold
